Test results as given in patent US20200010554A1 (TUSK THERAPEUTICS, published 2020).
Residue numbers refer to the chain shown, from its start.

Columns and labels:
[1] = biological target: recombinant mouse IL-2 (mouse) (UniProt P04351); experiment: cell-based or functional assay
[2] = biological target: T1, human CD25 expressed on cells (Karpas 299, SU-DHL-1, SR-786, in vitro differentiated Treg cells, PBMC) (human, UniProt P01589 22-272); experiment: flow cytometry on human in vitro differentiated Treg cells, MFI AF647
T1 construct: also called CD25 expressing cells
T1 sequence: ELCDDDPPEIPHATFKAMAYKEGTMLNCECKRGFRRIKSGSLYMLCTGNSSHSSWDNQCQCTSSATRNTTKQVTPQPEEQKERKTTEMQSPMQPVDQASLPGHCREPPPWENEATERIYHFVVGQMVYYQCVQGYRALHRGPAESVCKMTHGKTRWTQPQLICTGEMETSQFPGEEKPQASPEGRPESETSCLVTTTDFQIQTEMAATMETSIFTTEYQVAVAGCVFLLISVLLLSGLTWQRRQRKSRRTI

[3] = biological target: T1, human CD25 expressed on cells (Karpas …); experiment: flow cytometry titration on Karpas 299 cells, AF647 secondary antibody
[4] = biological target: T1, human CD25 expressed on cells (Karpas …); experiment: flow cytometry titration on Karpas 299 cells, AF647 secondary antibody [Figure 68 continued]
[5] = biological target: T1, human CD25 expressed on cells (Karpas …); experiment: as above; remark: listed apart in the source
[6] = biological target: T1, human CD25 expressed on cells (Karpas …); experiment: flow cytometry titration on Karpas 299 cells, AF647 secondary antibody; remark: listed apart in the source
[7] = biological target: T1, human CD25 expressed on cells (Karpas …); experiment: flow cytometry titration on Karpas 299 cells, AF647 secondary antibody [Figure 68 continued]; remark: listed apart in the source
[8] = biological target: T1, human CD25 expressed on cells (Karpas …); experiment: as above; remark: listed apart in the source
[9] = biological target: T1, human CD25 expressed on cells (Karpas …); experiment: flow cytometry titration on Karpas 299 cells, AF647 secondary antibody; remark: listed apart in the source
[10] = biological target: T1, human CD25 expressed on cells (Karpas …); experiment: as above; remark: listed apart in the source
[11] = biological target: T2, recombinant mouse CD25 (mouse, UniProt P01590 22-236, biotinylated in FIG. 1A (site not stated)); experiment: BLI tandem cross-blocking: biotinylated mouse CD25 on SA sensor, 100 nM mouse IL-2, then antibody at 150 s
T2 construct: also called biotinylated mouse CD25
T2 sequence (looked up): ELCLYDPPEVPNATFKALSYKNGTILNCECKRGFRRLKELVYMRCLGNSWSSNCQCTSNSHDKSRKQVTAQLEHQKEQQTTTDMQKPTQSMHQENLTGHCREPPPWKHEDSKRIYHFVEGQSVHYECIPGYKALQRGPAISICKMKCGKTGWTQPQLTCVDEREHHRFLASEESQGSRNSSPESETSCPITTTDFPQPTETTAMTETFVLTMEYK

[12] = biological target: T2, recombinant mouse CD25; experiment: BLI Octet RED384, IgG on AHQ sensors, 100 nM antigen, 1:1 model
[13] = biological target: T3, recombinant mouse CD25 his tagged (mouse, UniProt P01590 22-236, limits assumed); experiment: SPR Biacore 2000, antibody captured by anti-mouse antibody on CM-5 chip, recombinant mouse CD25 his tagged as analyte, bivalent analyte model
T3 construct: also called rmCD25 his tagged; mCD25; not shown: his tag
T3 sequence (looked up): T2 sequence (looked up)

[14] = biological target: T1, human CD25 expressed on cells (Karpas …); experiment: flow cytometry titration on Karpas 299 cells, AF647 secondary antibody [Figure 68 continued]; remark: listed apart in the source
[15] = biological target: T1, human CD25 expressed on cells (Karpas …); experiment: as above; remark: listed apart in the source

## neutralizing anti-mouse IL-2 antibody, clone Jes6-1A12
[1]
  frequency of CD4 T cells both proliferating and producing Granzyme B after anti-CD3/anti-CD28 stimulation: < 1%

B1: 7G7B6, mouse IgG2a anti-human CD25 antibody (antibody, V domains shown)
VH: EVQLVESGGDLVQPRGSLKLSCAASGFTFSSYGMSWVRQTPDKRLELVATINGYGDTTYYPDSVKGRFTISRDNAKNTLYLQMSSLKSEDTAMYFCARDRDYGNSYYYALDYWGQGTSVTVSS
VL: QIVLSQSPAILSASPGERVTMTCRASSSVSFMHWLQQKPGSSPKPWIYATSNLASGVSARFSGSGSGTSYSLTITRVEAEDAATYYCQQWSSNPPAFGGGTKLEIK
notes: also called 7G76B; mouse anti-human CD25 clone 7G7B6
[2]
  EC50 (read off the curve): ~1 µg/mL

B2: Antibody 12 (antibody, V domains shown)
VH: QVQLQESGPGLVKPSETLSLTCTVSGFSLTSYGIQWIRQPPGKGLEWIGVIWAGGSTNYNSALMSRVTISKDNSKNQFSLKLSSVTAADTAVYYCARAYGYDGSWLAYWGQGTLVTVSS
VL: DIQMTQSPSSLSASVGDRVTITCRASSSVSYMHWYQQKPGKAPKPLIFATSNLASGVPSRFSGSGSGTDYTLTISSLQPEDFATYYCQQWSSNPPTFGGGTKLEIK
notes: also called Ab12
[3]
  EC50 (read off the curve): ~0.3 µg/mL

B3: Antibody 20 (antibody, V domains shown)
VH: QVQLVESGGGVVQPGGSLRLSCAVSGFSLTSYGIQWVRQAPGKGLEWVSVIWAGGSTNYNSALMSRFTISKDNSKSTLYLQMNSLRAEDTAVYYCARAYGYDGSWLAYWGQGTLVTVSS
VL: B2 VL
notes: also called Ab20
[4]
  EC50 (read off the curve): ~0.2 µg/mL

B4: Antibody 17 (antibody, V domains shown)
VH: B2 VH with I37V, N76S
VL: B2 VL with D1Q, M4L, A42S
notes: also called Ab17
[5]
  EC50 (read off the curve): ~0.2 µg/mL

B5: Antibody 13 (antibody, V domains shown)
VH: B2 VH
VL: B2 VL with D1Q, M4L, A42S
notes: also called Ab13
[6]
  EC50 (read off the curve): ~0.2 µg/mL

B6: Antibody 21 (antibody, V domains shown)
VH: B3 VH
VL: B2 VL with D1Q, M4L, A42S
notes: also called Ab21
[7]
  EC50 (read off the curve): ~0.2 µg/mL

B7: Antibody 16 (antibody, V domains shown)
VH: B2 VH with I37V, N76S
VL: B2 VL
notes: also called Ab16
[8]
  EC50 (read off the curve): ~0.2 µg/mL

B8: Antibody 14 (antibody, V domains shown)
VH: B2 VH with I37V, N76S
VL: EIVLTQSPATLSLSPGERATLSCRASSSVSYMHWYQQKPGQAPRPLIFATSNLASGIPARFSGSGSGTDFTLTISSLEPEDFAVYYCQQWSSNPPTFGGGTKLEIK
notes: also called AB14
[9]
  EC50 (read off the curve): ~0.3 µg/mL

B9: Antibody 15 (antibody, V domains shown)
VH: B2 VH with I37V, N76S
VL: B8 VL with E1Q, F70Y
notes: also called Ab15
[10]
  EC50 (read off the curve): ~0.3 µg/mL

B10: recombinant mouse IL-2 (ligand, UniProt P04351 21-169, looked up)
chain: APTSSSTSSSTAEAQQQQQQQQQQQQHLEQLLMDLQELLSRMENYRNLKLPRMLTFKFYLPKQATELKDLQCLEDELGPLRHVLDLTQSKSFQLEDAENFISNIRVTVVKLKGSDNTFECQFDDESATVVDFLRRWIAFCQSIISTSPQ
[11]
  binding result: binds

B11: 7D4(mIgG2a), recombinant anti-mouse CD25 antibody with mouse IgG2a and kappa constant regions (antibody)
heavy: EVQLQQSGAALVKPGASVKMSCKASGYSFPDSWVTWVKQSHGKSLEWIGDIFPNSGATNFNEKFKGKATLTVDKSTSTAYMELSRLTSEDSAIYYCTRLDYGYWGQGVMVTVSSAKTTAPSVYPLAPVCGDTTGSSVTLGCLVKGYFPEPVTLTWNSGSLSSGVHTFPAVLQSDLYTLSSSVTVTSSTWPSQSITCNVAHPASSTKVDKKIEPRGPTIKPCPPCKCPAPNLLGGPSVFIFPPKIKDVLMISLSPIVTCVVVDVSEDDPDVQISWFVNNVEVHTAQTQTHREDYNSTLRVVSALPIQHQDWMSGKEFKCKVNNKDLPAPIERTISKPKGSVRAPQVYVLPPPEEEMTKKQVTLTCMVTDFMPEDIYVEWTNNGKTELNYKNTEPVLDSDGSYFMYSKLRVEKKNWVERNSYSCSVVHEGLHNHHTTKSFSRTPGK
light: DVVLTQTPPTLSATIGQSVSISCRSSQSLLHSNGNTYLNWLLQRPGQPPQLLIYLASRLESGVPNRFSGSGSGTDFTLKISGVEAEDLGVYYCVQSSHFPNTFGVGTKLEIKRADAAPTVSIFPPSSEQLTSGGASVVCFLNNFYPKDINVKWKIDGSERQNGVLNSWTDQDSKDSTYSMSSTLTLTKDEYERHNSYTCEATHKTSTSPIVKSFNRNEC
notes: also called 7D4m2a; a7D4 mIgG2a
[12]
  Kd: ~1 nM
[13]
  Kd: 2.6 nM

B12: 7D4(mIgG1), recombinant anti-mouse CD25 antibody with murine IgG1 and kappa constant regions (antibody)
heavy: EVQLQQSGAALVKPGASVKMSCKASGYSFPDSWVTWVKQSHGKSLEWIGDIFPNSGATNFNEKFKGKATLTVDKSTSTAYMELSRLTSEDSAIYYCTRLDYGYWGQGVMVTVSSAKTTPPSVYPLAPGSAAQTNSMVTLGCLVKGYFPEPVTVTWNSGSLSSGVHTFPAVLQSDLYTLSSSVTVPSSTWPSQTVTCNVAHPASSTKVDKKIVPRDCGCKPCICTVPEVSSVFIFPPKPKDVLMISLTPKVTCVVVDISKDDPEVQFSWFVDDVEVHTAQTKPREEQINSTERSVSELPILHQDWLNGKEFKCRVNSAAFPAPIEKTISKTKGRPKAPQVYTIPPPKEQMAKDKVSLTCMITNEFPEDITVEWQWNGQPAENYKNTQPIMDTDGSYFVYSKLNVQKSNWEAGNTFTCSVLHEGLHNHHTEKSLSHSPGK
light: B11 light
notes: also called a7D4(mIgG1); 7D4 (mlg1)
[12]
  Kd: ~1 nM

B13: 2E4, anti-mouse CD25 antibody from the 2E4 hybridoma (antibody, V domains shown)
VH: EVQLVESGGGLVQPGRSLKLSCAASGFTFSDYGMAWVRQAPTKGLEWVASITNGGLNTYYRDSVKGRFTISRDNAKCTLYLQMDSLRSEDTATYYCATGGFSFWGQGTLVTVSS
VL: DIVMTQSPTSMSISVGDRVTMNCKASQNVDSNVDWYQQKTGQSPKLLIYKASNRYTGVPDRFTGSGSGTDFTFTIRNMQAEDLAVYYCMQSNSYPLTFGSGTKLEIK
notes: also called 2E4 (mlg1)
[13]
  Kd: 114 nM

B14: Antibody 18 (antibody, V domains shown)
VH: B3 VH
VL: B8 VL
notes: also called Ab18
[14]
  EC50 (read off the curve): ~0.3 µg/mL

B15: Antibody 19 (antibody, V domains shown)
VH: B3 VH
VL: B8 VL with E1Q, F70Y
notes: also called Ab19; Antibodyl9
[15]
  EC50 (read off the curve): ~0.3 µg/mL
